Target: T1, untagged PGK1 (phosphoglycerate kinase 1), cleaved from His-SUMO-PGK1 (UniProt P00558 1-417)
T1 construct: phosphoglycerate kinase 1 (PGK1), full-length protein; also called His-tagged SUMO-PGK1; cleaved PGK1; source: E. coli BL21 (DE3), purified (Ni-NTA, SUMO protease cleavage, second Ni-NTA flow-through, Superdex200 gel filtration)
T1 sequence (looked up): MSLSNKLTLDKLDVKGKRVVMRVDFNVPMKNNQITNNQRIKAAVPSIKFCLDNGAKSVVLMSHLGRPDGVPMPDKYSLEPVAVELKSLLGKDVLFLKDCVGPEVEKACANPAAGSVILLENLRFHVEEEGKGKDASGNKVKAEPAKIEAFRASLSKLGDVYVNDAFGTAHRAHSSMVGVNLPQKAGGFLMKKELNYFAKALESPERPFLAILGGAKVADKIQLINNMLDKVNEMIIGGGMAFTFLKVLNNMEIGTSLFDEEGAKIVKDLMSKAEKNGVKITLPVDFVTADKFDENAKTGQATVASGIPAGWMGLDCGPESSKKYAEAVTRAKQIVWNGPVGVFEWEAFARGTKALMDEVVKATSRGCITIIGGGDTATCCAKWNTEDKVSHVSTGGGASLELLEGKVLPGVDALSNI
Test: MST; His-DJ-1 labelled with RED-tris-NTA (10 ul of 100 nM added to each sample), PGK1 titrated in a 16-step 1:1 serial dilution from a 152 uM stock; PBS-T buffer; 30 min at room temperature in the dark; Monolith NT.115, 40% LED, medium MST power
Conditions: both partners purified

Kd: ~15 µM
B1: His-tagged DJ-1 full-length protein (natural protein, UniProt Q99497 1-189, looked up)
chain: MASKRALVILAKGAEEMETVIPVDVMRRAGIKVTVAGLAGKDPVQCSRDVVICPDASLEDAKKEGPYDVVVLPGGNLGAQNLSESAAVKEILKEQENRKGLIAAICAGPTALLAHEIGFGSKVTTHPLAKDKMMNGGHYTYSENRVEKDGLILTSRGPGTSFEFALAIVEALNGKEVAAQVKAPLVLKD
notes: DJ-1 (product of the PARK7 gene), full-length protein; For MST the His tag was labelled non-covalently with the dye RED-tris-NTA; also called His-DJ-1; PARK7/DJ-1; source: E. coli BL21 (DE3), purified (Ni-NTA, Superdex200 gel filtration)

Reference: publication PMC11338267, “Phosphoglycerate kinase is a central leverage point in Parkinson’s disease–driven neuronal metabolic deficits” (Science Advances, 2024)
